Data on one molecule can be found in patent US20260317426 (published 2026).

The target in one assay is T1, MICB*004 ECD (human, UniProt Q29980).
T1 chain: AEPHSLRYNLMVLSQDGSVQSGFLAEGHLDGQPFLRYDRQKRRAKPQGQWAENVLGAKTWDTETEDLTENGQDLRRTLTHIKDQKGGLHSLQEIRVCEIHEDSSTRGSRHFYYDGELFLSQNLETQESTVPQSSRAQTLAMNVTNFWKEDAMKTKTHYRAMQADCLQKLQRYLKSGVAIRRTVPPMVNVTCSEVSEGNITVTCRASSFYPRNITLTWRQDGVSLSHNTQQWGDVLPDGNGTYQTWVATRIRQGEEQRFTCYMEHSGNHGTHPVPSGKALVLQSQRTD
Kind of assay: BLI, monovalent. A general note: Biolayer interferometry detects binding as a change in optical thickness at a sensor tip.

For assay [1], the target named is T2, MICA ECD (alleles *001, *002, *004, *008) (human, UniProt Q29983).
T2 chain: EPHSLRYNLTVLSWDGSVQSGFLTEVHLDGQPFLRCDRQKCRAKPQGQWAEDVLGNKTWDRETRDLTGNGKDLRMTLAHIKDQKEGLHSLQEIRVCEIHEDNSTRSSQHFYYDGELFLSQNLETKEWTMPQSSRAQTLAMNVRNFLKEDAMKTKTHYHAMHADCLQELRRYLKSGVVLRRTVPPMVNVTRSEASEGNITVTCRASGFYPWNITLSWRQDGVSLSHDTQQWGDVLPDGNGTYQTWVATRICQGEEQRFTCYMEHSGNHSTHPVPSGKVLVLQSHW
The assay is described as follows: BLI, monovalent, lowest of MICA alleles.

B1: CLN-619 (3F9H1L3L) (antibody, V domains shown)
VH: QVQLVESGGGLVKPGGSLRLSCAASGFTFSNYAMSWIRQAPGKGLEWVSYISPGGDYIYYADSVKGRFTISRDNAKNSLYLQMNSLRAEDTAVYYCTTDRRHYGSYAMDYWGQGTLVTVSS
VL: DIVMTQSPLSLPVTPGEPASISCRSSKSLLHSNLNTYLYWFLQKPGQSPQILIYRMSNLASGVPDRFSGSGSGTAFTLKISRVEAEDVGVYYCMQHLEYPFTFGPGTKLEIKR
A word on the Kd: it is the constant that tells how readily two partners part at equilibrium. Higher therefore signals weaker binding. In the case of B1, the equilibrium dissociation constant (Kd) was 11.4 nM in the assay with MICB*004 ECD and 0.77 nM in assay [1].
